One substance from patent US20200255869 can be followed below.

This series deals with purified HSA (Abcam, ab201876) (UniProt P02768).
UniProt P02768, sequence (P02768 whole entry, looked up): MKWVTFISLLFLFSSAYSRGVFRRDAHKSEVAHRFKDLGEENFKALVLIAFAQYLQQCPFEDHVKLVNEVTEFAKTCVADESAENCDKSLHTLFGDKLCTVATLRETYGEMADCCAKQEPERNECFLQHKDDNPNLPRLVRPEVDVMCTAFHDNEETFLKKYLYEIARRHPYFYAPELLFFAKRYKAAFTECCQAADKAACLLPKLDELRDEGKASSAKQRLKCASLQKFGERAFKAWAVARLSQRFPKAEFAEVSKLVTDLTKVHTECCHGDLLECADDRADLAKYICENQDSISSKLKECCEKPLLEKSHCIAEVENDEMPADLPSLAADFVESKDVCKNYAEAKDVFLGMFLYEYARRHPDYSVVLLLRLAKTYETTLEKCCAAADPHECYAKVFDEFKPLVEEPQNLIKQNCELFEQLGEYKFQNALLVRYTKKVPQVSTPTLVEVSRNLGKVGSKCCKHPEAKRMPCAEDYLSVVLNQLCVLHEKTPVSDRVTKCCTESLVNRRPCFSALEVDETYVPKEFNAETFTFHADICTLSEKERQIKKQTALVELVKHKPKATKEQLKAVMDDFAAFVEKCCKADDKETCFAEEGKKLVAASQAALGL

For the substance “YscB protein of Talaromyces cellulolyticus strain S6-25”, the “degradation of purified HSA mixed with culture supernatant (30 C, 3 days), SDS-PAGE and Western blotting using an anti-HSA antibody” value is reported as “in the case of the strain deficient in yscB, the bands corresponding to degradation products were eliminated”.
